From patent US20240018513A1, “SYNTHETIC INTRONS FOR TARGETED GENE EXPRESSION” (FRED HUTCHINSON CANCER CENTER, priority 2020, published 2024)

Assays:
SF3B1-mutant K562 cells = assay: Mini-screen: pooled synthetic intron mini-library in HSV-TK, GCV treatment, full-length intron sequencing from genomic DNA; assay type: cell-based; settings: genotype K700E (SF3B1+/K700E) K562; GCV 100 ug/mL; day 6; vector hPGK-PuroR-P2A-HSV-TK
Text: (§1) Therefore, a massively parallel splicing assay was developed to map and functionally interrogate key sequence features within the synthetic intron. First, a pilot mini-library of eight synthetic introns was synthesized, seven of which were much shorter (lengths of 100-158 nt) than the parent synthetic intron (synMTERFD3i1-250), and each with one or more perturbations to potentially critical features (FIG. 2E). This mini-library was cloned into HSV-TK, introduced into WT or SF3B1-mutant K562 cells with a lentiviral vector at a low multiplicity of infection, and treated with GCV. Relative depletion of each construct was measured by high-throughput sequencing of the entire introns from genomic DNA after six days of treatment (TABLE 1).
(§2) Each synthetic intron used in the mini-library was ordered individually as a gBlock (Integrated DNA Technologies), consisting of the desired intron flanked by homology arms for cloning (5′ arm: […] (SEQ ID NO:158); 3′ arm: […] (SEQ ID NO:159; TABLE 3). The gBlocks were then mixed in equal proportions before being cloned into hPGK-PuroR-P2A-HSV-TK using a previously published strategy for pooled cloning (Thomas, J. D. et al. RNA isoform screens uncover the essentiality and tumor-suppressor activity of ultraconserved poison exons. Nature genetics 52, 84-94 (2020), incorporated herein by reference in its entirety). This intron mix was then amplified using NEBNext High Fidelity Ready Mix (New England Biolabs) and purified using 1.8×AMPure XP SPRI beads (Beckman Coulter). The backbone for the library was amplified using Q5 polymerase (New England Biolabs). The library was transformed and amplified using Endura ElectroCompetent Cells (Lucigen, 60242-2) and large LB plates. The library was maxiprepped using a Macherey-Nagel MaxiPrep kit (Thermo Fisher Scientific, Cat 740414.10).
(§3) WT or SF3B1-mutant K562 cells were infected with lentivirus encoding the mini-library at an MOI of 0.3 and untreated or treated with GCV (100 ug/mL) for 6 days. Genomic DNA was collected at day 6 and the resulting Illumina libraries were sequenced with 2×150 bp reads (Illumina MiSeq). Depletion/enrichment of each construct was estimated as follows. For each sample, reads were normalized to the total reads mapped. The relative fraction of reads mapping to each intron was then estimated by dividing the numbers of normalized reads mapped to an intron by the total reads mapped in the sample. The standard deviation was calculated using the sample proportion P for each intron (σ=sqrt [P(1−P)/n]). A fold-change was calculated for each intron by dividing the proportion of the intron in the treated GCV samples by the fraction of the intron in the untreated samples. Error propagation was used to estimate the standard deviation. The final relative fold-changes were computed by normalizing fold-changes such that the fold-change of synMTERFD3i1-250 in the pilot screen was identical to the experimentally measured fold-change in a single-construct experiment (FIG. 2C, 100 μg/mL of GCV).

WT K562 cells = assay: as above; assay type: cell-based; settings: genotype WT (SF3B1+/+) K562; GCV 100 ug/mL; day 6; vector hPGK-PuroR-P2A-HSV-TK
Text: as §1, §2, §3

Molecule | fold-change (estimated fold-change in intron abundance in gDNA) (SF3B1-mutant K562 cells) | fold-change (estimated fold-change in intron abundance in gDNA) (WT K562 cells)
intron_13121: 150 nt control synthetic intron, GT_to_CC + AG_to_CC splice site mutations; SEQ ID NO 56/64 (nucleic acid) DNA 1: CCGAGTCGCCCCCTTCCTCTGCTCCGAGAGGGAAATGGGAATTAGGGTGGTGGCAGAGCCCAAAGAGGCCTTGTAGGCCATGGTAAGGCATTTCTATGTTTTATTTTACTTTGTCTTTATCCTAAAATGCCATTGGCAAGTTTATTGCCC DNA 2: CCGAGTCGCCCCCTTCCTCTGCTCCGAGAGGGAAATGGGAATTAGGGTGGTGGCAGAGCCCAAAGAGGCCTTGTAGGCCATGGTAAGGCATTTCTATGTTTTATTTTACTTTGTCTTTATCCTAAAATGCCATTGGCAAGTTTATTGCCC | 0.8961 | 1.226
intron_2790: 150 nt synthetic intron, mutation 148_AtoG (canonical 3′ss); SEQ ID NO 59/67 (nucleic acid) DNA 1: GTGAGTCGCCCCCTTCCTCTGCTCCGAGAGGGAAATGGGAATTAGGGTGGTGGCAGAGCCCAAAGAGGCCTTGTAGGCCATGGTAAGGCATTTCTATGTTTTATTTTACTTTGTCTTTATCCTAAAATGCCATTGGCAAGTTTATTGCGG DNA 2: GTGAGTCGCCCCCTTCCTCTGCTCCGAGAGGGAAATGGGAATTAGGGTGGTGGCAGAGCCCAAAGAGGCCTTGTAGGCCATGGTAAGGCATTTCTATGTTTTATTTTACTTTGTCTTTATCCTAAAATGCCATTGGCAAGTTTATTGCGG | 0.7611 | 1.042
intron_8499: 150 nt synthetic intron, 89/95/102/107 AtoG branchpoint ablation; SEQ ID NO 61/69 (nucleic acid) DNA 1: GTGAGTCGCCCCCTTCCTCTGCTCCGAGAGGGAAATGGGAATTAGGGTGGTGGCAGAGCCCAAAGAGGCCTTGTAGGCCATGGTAAGGCGTTTCTGTGTTTTGTTTTGCTTTGTCTTTATCCTAAAATGCCATTGGCAAGTTTATTGCAG DNA 2: GTGAGTCGCCCCCTTCCTCTGCTCCGAGAGGGAAATGGGAATTAGGGTGGTGGCAGAGCCCAAAGAGGCCTTGTAGGCCATGGTAAGGCGTTTCTGTGTTTTGTTTTGCTTTGTCTTTATCCTAAAATGCCATTGGCAAGTTTATTGCAG | 0.2767 | 1.15
intron_4095: 150 nt synthetic intron, 138_AtoC-139_GtoC (cryptic 3′ss at −11 removed); SEQ ID NO 60/68 (nucleic acid) DNA 1: GTGAGTCGCCCCCTTCCTCTGCTCCGAGAGGGAAATGGGAATTAGGGTGGTGGCAGAGCCCAAAGAGGCCTTGTAGGCCATGGTAAGGCATTTCTATGTTTTATTTTACTTTGTCTTTATCCTAAAATGCCATTGGCACCTTTATTGCAG DNA 2: GTGAGTCGCCCCCTTCCTCTGCTCCGAGAGGGAAATGGGAATTAGGGTGGTGGCAGAGCCCAAAGAGGCCTTGTAGGCCATGGTAAGGCATTTCTATGTTTTATTTTACTTTGTCTTTATCCTAAAATGCCATTGGCACCTTTATTGCAG | 0.2637 | 0.3305
intron_9600: 158 nt synthetic intron, insertion 89_TACTAACA consensus branchpoint; SEQ ID NO 62/70 (nucleic acid) DNA 1: GTGAGTCGCCCCCTTCCTCTGCTCCGAGAGGGAAATGGGAATTAGGGTGGTGGCAGAGCCCAAAGAGGCCTTGTAGGCCATGGTAAGGCTACTAACAATTTCTATGTTTTATTTTACTTTGTCTTTATCCTAAAATGCCATTGGCAAGTTTATTGCAG DNA 2: GTGAGTCGCCCCCTTCCTCTGCTCCGAGAGGGAAATGGGAATTAGGGTGGTGGCAGAGCCCAAAGAGGCCTTGTAGGCCATGGTAAGGCTACTAACAATTTCTATGTTTTATTTTACTTTGTCTTTATCCTAAAATGCCATTGGCAAGTTTATTGCAG | 0.2356 | 1.112
intron_2258: 100 nt MTERFD3 intron 1-derived synthetic intron, deletion 15to65; SEQ ID NO 57/65 (nucleic acid, expressed or natural sequence) DNA 1: GTGAGTCGCCCCCTTAGGCCTTGTAGGCCATGGTAAGGCATTTCTATGTTTTATTTTACTTTGTCTTTATCCTAAAATGCCATTGGCAAGTTTATTGCAG DNA 2: GTGAGTCGCCCCCTTAGGCCTTGTAGGCCATGGTAAGGCATTTCTATGTTTTATTTTACTTTGTCTTTATCCTAAAATGCCATTGGCAAGTTTATTGCAG | 0.4996 | 1.279
